Laboratory results reported in the DeepSol protein solubility set.

Test: soluble on expression in E. coli; label from the status in PepcDB or PDB records

Sequence | soluble on expression in E. coli
MQPQAFYRVVAEDFTAVDGIIRRQLTSRVPLVEKIGDYIISAGGKRLRPLLVLLAGKTLGYKGDDLCLLAATIEFLHTSTLLHDDVVDASGLRRGRSTANALWGNAPSVLVGDFLYARSFEMMVELGSMPVMRIISQATRVIAEGEVLQLSKVRDASTTEETYMEVIRGKTAMLFEASTHSAAALCQAGEEQSEALRRFGDYLGIAFQLVDDLLDYRGDAATLGKNVGDDLAEGKPTLPLIVTMRDGTEEQAALVRKAIQQGGSQDLESVCAAVEAAGALDYTANLARDYAARAIACLDTLPDNEYRSALVELSEFAVARTH | not soluble
MQPVLVFKLTADFREDPDPRKVNLGVGAYRTDDCHPWVLPVVKKVEQKIANDNSLNHEYLPILGLAEFRSCASRLALGDDSPALKEKRVGGVQSLGGTGALRIGADFLARWYNGTNNKNTPVYVSSPTWENHNAVFSAAGFKDIRSYRYWDAEKRGLDLQGFLNDLENAPEFSIVVLHACAHNPTGIDPTPEQWKQIASVMKHRFLFPFFDSAYQGFASGNLERDAWAIRYFVSEGFEFFCAQSFSKNFGLYNERVGNLTVVGKEPESILQVLSQMEKIVRITWSNPPAQGARIVASTLSNPELFEEWTGNVKTMADRILTMRSELRARLEALKTPGTWNHITDQIGMFSFTGLNPKQVEYLVNEKHIYLLPSGRINVSGLTTKNLDYVATSIHEAVTKIAENLYFQSHHHHHHDYKDDDDK | soluble
MQQSTLVRLKEKLTLKNPIMVVGLPGVGLVGKLVAEHLVDELAAERIMEVYSPHFPPQVLVNKDCTVRPVSNTIYLGKANETDVLFLVGDHQSTTAQGHYELCSLYLDIAEELKVPRIYTLGGYPTGKLTYEDTVLGVANSTELIEEIKQYGVEFRESEPSGGIVGASGLLVAFSGMRGIDAACLMGMTPGYLMDPKSAQSLLKVLCNIFGIEVNTDSLKKKAEEMENILEKLKEKEEQQNLPEVKPTEEDLRYIG | soluble
MQRMGMVIGVKPEMIAEYKRLHAAVWPEVLALISESNIRNYTIFLREPENLLFGYWEYHGSDFSADMAKIAASPKNQEWWSFTIPCQQPLESRKEGEWWAMMEETFHLD | not soluble
MQRNSENSKNGRRVSSSSYMSAAAAAGAAAALRLSVDARAGKEYTTQTHQRDKT | not soluble
MQRQEQLKKWLAEQYPGDEIQLEFAAADADFRRYFRAIWPDGASRIVMDAPPEHIGTDAYVKVRDIFSMVKVPEIYLRDRDQGFIVMEDLGKVTYLAALQHDERPFVHRHLLLEALDTLVDIQKASQPEVLPEYDETLLTRELNLFPEWFCAKELGKPLNFKQRQLWDAGVQALLPALLTQPKVFVHRDFIVRNLMLTPGTPGVLDFQDAVYGPISYDAVSLLRDAFIEWDEEFVLDLAIRYWEKARAAGLPVPEAFDDFYRAFEWMGVQRHLKVAGIFARLYHRDGKDKYLAEIPRFIKYLKRTTRRYAELAPFYQLLVDLVGRDATDEELQSSYPVLGVKGHLEHHHHHH | not soluble
MQRSLFSKFRQILTYKCDWYGKELILADKTYPSTQRCAKCGYVKTGDEKITLQGNQKHGTKHNEYICYKCDYSNDRDENAVLNLLALARLEHHHHHH | not soluble
MQRVAISTLGCKINQFESAAMTESLGREGFRVVPFDEDADIYVINTCTVTAKTDAESRRLIRRALRRNPAARVVVTGCYAQVAPDAVKDLPGVALVVGNSEKRSIGELLRDAAPAEKVMVSDISRERTAEGLRLESFAEHTRAFLQVQNGCDAFCSYCIVPYARGRSRSVSFSEALAGIRNFAAQGFREVVLTGIHLGAYGLDLAPPTNLLALLEASEAEKAVPRLRVGSVEPNELTDALVDFLARSETVCPHLHIPLQSGDDRVLERMGRRYTAAFFRERVERLVAVVPDIFIGCDVIAGFPGETDEEFQNTVRLIEELPVASLHVFPYSRREGTAAARMEGQVDGKVIRGRAEILREVGERKRRSFCERFVGRELAVLMQNRGRDGEAVGLSRNYLPVRVPGYAGEMNAEATVMVTEVTPDGVGGIIRGLEHHHHHH | soluble
MQSETTSKHTDILTSLQLSLTPRRDPTFEETTTDEQTSVQIALSPCLNATIASSKYSLDDLDVSAQYLWDTAADNLIYTTSNAREIPIRTRPTTFLTKRMTEGLQVDVTGAPTSAWIAHPLTFEVIYHHLANILCATPVFYVPHPQLLIAVASHIVSPQLESWLSTFSTPLVKDALIYHEGFPAHIKSSAWQQPLHHMSSDQLSA | not soluble
MQSVDVAIVGGGMVGLAVACGLQGSGLRVAVLEQRVQEPLAANAPPQLRVSAINAASEKLLTRLGVWQDILSRRASCYHGMEVWDKDSFGHISFDDQSMGYSHLGHIVENSVIHYALWNKAHQSSDITLLAPAELQQVAWGENETFLTLKDGSMLTARLVIGADGANSWLRNKADIPLTFWDYQHHALVATIRTEEPHDAVARQVFHGEGILAFLPLSDPHLCSIVWSLSPEEAQRMQQASEDEFNRALNIAFDNRLGLCKVESARQVFPLTGRYARQFASHRLALVGDAAHTIHPLAGQGVNLGFMDAAELIAELKRLHRQGKDIGQYIYLRRYERSRKHSAALMLAGMQGFRDLFSGTNPAKKLLRDIGLKLADTLPGVKPQLIRQAMGLNDLPEWLRLEHHHHHH | not soluble
MQSVTPTSQYLKALNEGSHQPDDVQKEAVSRLEIIYQELINSRPPAPRTSGLMARVGKLWGKREDTKHTPVRGLYMWGGVGRGKTWLMDLFYQSLPGERKQRLHFHRFMLRVHEELTALQGQTDPLEIIADRFKAETDVLCFDEFFVSDITDAMLLGGLMKALFTRGITLVATSNIPPDELYRNGLQRARFLPAIDAIKQHCDVMNVDAGVDYRLRTLTQAHLWLSPLNDETRAQMDKLWLALAGVKRENSPTLEINHRPLATMGVENQTLAVSFTTLCVDARSQHDYIALSRLFHTVMLFDVPVMTRLMESEARRFIALVDEFYERHVKLVVSAEVPLYEIYQGERLKFEFQRCLSRLQEMQSEEYLKLEHHHHHH | not soluble
MQSWYLLYCKRGQLQRAQEHLERQAVNCLAPMITLEKIVRGKRTAVSEPLFPNYLFVEFDPEVIHTTTINATRGVSHFVRFGASPAIVPSAVIHQLSVYKPKDIVDPATPYPGDKVIITEGAFEGFQAIFTEPDGEARSMLLLNLINKEIKHSVKNTEFRKL | soluble
MQVHVIRRENRALYAGLLEKYFRIRHQIYVVERGWKELDRPDGREIDQFDTEDAVYLLGVDNDDIVAGMRMVPTTSPTLLSDVFPQLALAGPVRRPDAYELSRIFVVPRKRGEHGGPRAEAVIQAAAMEYGLSIGLSAFTIVLETWWLPRLVDQGWKAKPLGLPQDINGFSTTAVIVDVDDDAWVGICNRRSVPGPTLEWRGLEAIRRHSLPEFQVIS | not soluble
MQWSVWKMEESLDTLFSLLPDVRRVSCEQEMQRFTSDRRKLEWLSVRVLLYSMLQEDKEIGYSSEGKPHLTDNSSFISISHTKGYVAVILSSVAPVGIDIEQYGQRVKRVYDRFIRSDERVEPYQGDETWSMLLHWSAKETIFKSMENADADLRKLCLSHFIPQSEGVFQVREYATERQQLFTVGYRICPDFVLTWTVTIS | not soluble
MRAPFISSLVKTLVHTDYDTSTGEVRSRRATGFVVGLTGEWGLGKSSVLNLLEHDLKQMEHVAVATLNPWLFKGRDEVVEAYFNALREALGFSSSEKARKLLVHLARYKASIEFVGATTAVVIDFVVGTGSATAIWKKWVLKVVRFLSKSRGLSANEERKNLEAKLAEAKIAIVMLIDELDRVEDEEVRVVAQLVKAVGDIKGISYLVAYDPSRVAQALGKGSTPEEKQKAGESYLEKIIQFPIPLRPLFMDEARDLLLQAMRNNDVTMPAESQSYQTEILNQLLRVIRTPREIKRLIGAFAVLEEIVRGLEHHHHHH | soluble
MRAQMKQYNCHEGALPFTKSYLLRPLFNAFLMSPKPFHTTEACIGCKKCEKVCPVGNITVTDRPVWGGNCTQCLACYHVCPVHAVEYGKMTGLEHHHHHH | not soluble
MRDFNNAQITRLKVRQNAVFEKLDLEFKDGLSAISGASGVGKSVLIASLLGAFGLKESNASNIEVELIAPFLDTEEYGIFREDEHEPLVISVIKKEKTRYFLNQTSLSKNTLKALLKGLIKRLSNDRFSQNELNDILMLSLLDGYIQNENKAFSPLLGALEEKFTRLEKLEKERRLLEDKKRFQKDLEERLNFEKMKLERLDLKEDEYERLLEQKKLLSSKEKLNDKIALAL | not soluble
MREEKGMDQKVYDAYLSILKAELVPALGCTEPITIAYASAIARECLGAFPDVIQIKASGNIIKNVKSVVVPGTNGMKGIEAAVAAGLVGGKSEKKLEVISEVTEEEKEQIRDLVEKEIIEVGIAGSDLLLDVQVQLKKGDDSVFVRIANAHTNVVLVEKNGVRLFEKAMDCGGDDAGLSQEKKLLSVEGILEFADQVKLEDIEDVISRQIAYNTAIADEGLAHNYGANIGKVLLQAYGDQDVRVRAKARAAAGSDARMSGCELPVIINSGSGNQGITASVPVIEYAKELKCGEEKMYRALVLSNLIAIHQKTGIGPLSAYCGAVSAGCASGAAIAYLNGGDLRTISHTIVNCLAIASGIVCDGAKASCAAKIGMSVEAGLLGYLMIEQDQQFRAGDGIVKKGVEETIRSVGRLGKDGMRETDREILEIMIGK | not soluble
MREKLFWILKKYGVSDHIAKAFLEIPREEFLTKSYPLSYVYEDIVLVSYDDGEEYSTSSQPSLMALFMEWVGLDKGMRVLEIGGGTGYNAAVMSRVVGEKGLVVSVEYSRKICEIAKRNVERLGIENVIFVCGDGYYGVPEFSPYDVIFVTVGVDEVPETWFTQLKEGGRVIVPINLKLSRRQPAFLFKKKDPYLVGNYKLETRFITAGGNLGNLLERNRKLLREFPFNREILLVRSHIFVELVDLLTRRLTEIDGTFYYAGPNGVVEFLDDRMRIYGDAPEIENLLTQWESCGYRSFEYLMLHVGYNAFSHISCSI | soluble
MREMTADPYLGKYITCVSARSTDKEILKKAQDGGIATALMVYALEEGIIDGTIVAGEGDRPWEPRPIVAMSREDILKARGTKYSISPQIAWLKEATRSFGLDKVGVTGVCCQMQAVRKAQLYPINMRDVPGKVALTVGLFCMENFPYKSLQTIVEDHAAQSLGSVKKMEITKGKFWVHTERGNVSTVPLKATHKYEQPGCHVCLDYVSSLADISTGSVGSPDGWSTVFIRTKKGNEVWSKAVAAGMFETKPIEDVKPGLELLTKLAKEKIDKNRKTLEERRNFGVNKALRDPYAAAALEHHHHHH | not soluble
MRETSSREDTNNIGKAPEMSGGTIMDTMTSLPHQNDQNVIRHLTNLVKSPASGDDDIKKKEDSIMELGNILAQNKQTEELRNMIEQTRPFLVSLGKAKAAKLVRDLVDLCLKIDDQDGDIKVGLVKECIQWATEQNRTFLRQTLTARLVRLYNDLQRYTQALPLAADLIRELKKVDDKDVLVEVELEESKAYYNLSNIGRARASLTGARTTANAIYVNPRMQAALDLQSGILHAADEKDFKTAFSYFYEAFEGYDSVDEKVSALTALKYMLLCKVMLDLPDEVNSLLSAKLALKYNGSDLDAMKAIAAAAQKRSLKDFQVAFGSFPQELQMDPVVRKHFHSLSERMLEKDLCRIIEPYSFVQIEHVAQQIGIDRSKVEKKLSQMILDQKLSGSLDQGEGMLIVFEIAVPDEAYQTALDTIHAMGEVVDALYSNASKIN | not soluble
MREVKAFVTQDIPLYHNLVMKHIPGADPELVLLNHYYEELDRIPLFEMTRAEINKLLAELGFYKKDHPEDQVPEEFRFSPAKDSPFEGRQSSTAAPETTEPSDSQHTDL | soluble
MRFFNKYKLFLDCAYKHLNIVLLDFKTNTVVDQLTIPVQQNLTELAVYHLEKLLKKNKVRNNTVRQFYVTTGPGSFTGQRVGAIIAKTWCTVNPNCQLFALNSLRLQIPYGCGISKISAGNEKNYCGLFTETTSEIALLAKPDFVKLCKANTELPVYENFENIDSIEELFLNNIERFELVENPQNLELLYLKDPVN | soluble
